Measured values from paper PMC9427005 (Science (New York, N.y.), 2022).

B1: LY-CoV016 IgG1 (antibody, V domains shown)
VH: EVQLVESGGGLVQPGGSLRLSCAASGFTVSSNYMSWVRQAPGKGLEWVSVIYSGGSTFYADSVKGRFTISRDNSMNTLFLQMNSLRAEDTAVYYCARVLPMYGDYLDYWGQGTLVTVSS
VL: not shown
notes: IgG1
B2: CT-P59 IgG1 (antibody, V domains shown)
VH: QITLKESGPTLVKPTQTLTLTCSFSGFSLSTSGVGVGWIRQPPGKALEWLALIDWDDNKYHTTSLKTRLTISKDTSKNQVVLTMTNMDPVDTATYYCARIPGFLRYRNRYYYYGMDVWGQGTTVTVSS
VL: ELVLTQPPSVSAAPGQKVTISCSGSSSNIGNNYVSWYQQLPGTAPKLLIYDNNKRPSGIPDRFSGSKSGTSATLGITGLQTGDEADYYCGTWDSSLSAGVFGGGTELTVL
notes: IgG1
B3: ADI-58125 IgG1 (antibody, V domains shown)
VH: EVQLVESGGGLVKPGGSLRLSCAASGFTFSSYYMNWVRQAPGKGLEWVSSISEDGYSTYYPDSLKGRFTISRDSAKNSLYLQMNSLRADDTAVYYCARDFSGHTAWAGTGFEYWGQGTLVTVSS
VL: QSVLTQPPSVSGAPGQRITISCTGSSSNIGAGYDVHWYQQLPGTAPKLLIYGSSSRNSGVPDRFSGSKSGTSASLAITGLQAEDEADYYCQSYDSSLSVLYTFGTGTKVTVL
notes: IgG1
B4: REGN10987 IgG1 (antibody, V domains shown)
VH: QVQLVESGGGVVQPGRSLRLSCAASGFTFSNYAMYWVRQAPGKGLEWVAVISYDGSNKYYADSVKGRFTISRDNSKNTLYLQMNSLRTEDTAVYYCASGSDYGDYLLVYWGQGTLVTVSS
VL: QSALTQPASVSGSPGQSITISCTGTSSDVGGYNYVSWYQQHPGKAPKLMIYDVSKRPSGVSNRFSGSKSGNTASLTISGLQSEDEADYYCNSLTSISTWVFGGGTKLTVL
notes: IgG1
B5: COV2-2196 IgG1 (antibody, V domains shown)
VH: QMQLVQSGPEVKKPGTSVKVSCKASGFTFMSSAVQWVRQARGQRLEWIGWIVIGSGNTNYAQKFQERVTITRDMSTSTAYMELSSLRSEDTAVYYCAAPYCSSISCNDGFDIWGQGTMVTVSS
VL: not shown
notes: IgG1
B6: REGN10933 IgG1 (antibody, V domains shown)
VH: QVQLVESGGGLVKPGGSLRLSCAASGFTFSDYYMSWIRQAPGKGLEWVSYITYSGSTIYYADSVKGRFTISRDNAKSSLYLQMNSLRAEDTAVYYCARDRGTTMVPFDYWGQGTLVTVSS
VL: DIQMTQSPSSLSASVGDRVTITCQASQDITNYLNWYQQKPGKAPKLLIYAASNLETGVPSRFSGSGSGTDFTFTISGLQPEDIATYYCQQYDNLPLTFGGGTKVEIK
notes: IgG1
B7: S2X35 IgG (antibody, V domains shown)
VH: QVQLVQSGAEVKKPGASVKVSCKASGYTFTNYGISWVRQAPGQGLEWMGWISAYKGNTNYAQKLQGRVTMTTDTSTSTAYMELRSLRSDDTAVYYCARPDYQVLGYDFWIGYYGMDVWGQGTTVIVSS
VL: QSVLTQPPSVSGAPGQRVTISCTGSSSNIGAGYDVHWYQQLPGTAPKLLIYGNTNRPSGVPDRFSGSKSGTSASLAITGLQAEDEADYYCQSYDSSLSGSEVVFGGGTKLTVL
B8: LY-CoV555 IgG1 (antibody, V domains shown)
VH: QVQLVQSGAEVKKPGSSVKVSCKASGGTFSNYAISWVRQAPGQGLEWMGRIIPILGIANYAQKFQGRVTITADKSTSTAYMELSSLRSEDTAVYYCARGYYEARHYYYYYAMDVWGQGTAVTVSS
VL: not shown
notes: IgG1

molecular target: SARS-CoV-2 Wuhan-Hu-1 RBD for SPR binding assays (SARS-CoV-2 Wuhan-Hu-1 (NC_045512.2), UniProt P0DTC2); assay: SPR; conditions: both partners purified

Binder	Kd	koff	kon
B1	13.8 nM	–	–
B2	0.066 nM	0.000365 s⁻¹	5.54e+06 M⁻¹ s⁻¹
B3	< 0.01 nM	7.17e-08 s⁻¹	1.15e+06 M⁻¹ s⁻¹
B4	12.4 nM	–	–
B5	1.09 nM	0.0124 s⁻¹	1.14e+07 M⁻¹ s⁻¹
B6	0.689 nM	0.00364 s⁻¹	5.29e+06 M⁻¹ s⁻¹
B7	0.268 nM	0.000153 s⁻¹	570000 M⁻¹ s⁻¹
B8	1.48 nM	0.00117 s⁻¹	792000 M⁻¹ s⁻¹
